From patent publication US20130252821A1, “METHODS AND COMPOSITIONS FOR THE TREATMENT AND DIAGNOSIS OF DISEASES CHARACTERIZED BY VASCULAR LEAK, HYPOTENSION, OR A PROCOAGULANT STATE” (Beth Israel Deaconess Medical Center, Inc., priority 2005, published 2013)
Entries after “also recorded” stand apart in the source; their conditions may differ.

Key:
[1] = tested on: HMVEC-L monolayer; experiment: Measurement of endothelial permeability in vitro (FITC-albumin); type: cell-based, human
Procedure: Coster Transwell membranes (Corning Inc. Corning, N.Y.) were coated with 0.5% Gelatin and cells were grown until confluence. Vehicle or proteins with FITC-albumin (1 mg/ml) was added to the luminal chamber for 4 hours, and samples were taken from both the luminal and abluminal chamber for fluorometry analysis. The readings were converted with the use of a standard curve to albumin concentration. These concentrations were then used in the following equation to determine the permeability coefficient of albumin (Pa).
[A] is abluminal concentration; t is time in seconds; A is area of membrane in cm^2; V is volume of abluminal chamber; and [L] is luminal concentration. siRNA Transfection: HMVEC-Ls were seeded and control small interfering RNA (siRNA) (Ambion, Ausin, Tex.) or siRNA directed to human p190RhoGAP (5′-[…]-3′ SEQ ID NO: 5 and 5′-[…]-3′ SEQ ID NO: 6) was transfected using SilentFect Lipid reagent (Bio-Rad) according to the manufacturer's instructions. The cells were used for each experiment 3 days after transfection. Almost 90-100% cells were transfected with siRNA (checked by fluorescent labeled siRNA). Down-regulation of p190RhoGAP was verified by immunoblotting. We tested two different siRNA for the experiment and obtained similar results.

[2] = tested on: Rac1; experiment: Rac1 activity assay (pull-down); type: cell-based, human
Procedure: These were performed and quantified using the commercially available kit according to the manufacturer's instruction (Cytoskeleton, Denver, Colo.). After signal starvation, HMVEC-L were treated with vehicle, Ang-1 (100 ng/ml) with or without inhibitor for the indicated time and harvested with lysis buffer. Following a brief centrifugation to remove cell debris, lysates from the cells containing equivalent protein concentrations were incubated for 60 minutes with 40 μL slurry of a GST-fusion protein composed of Rac1 or RhoA effector proteins coupled to agarose beads. After washing with lysis buffer, samples were subjected to immunoblotting and detected with anti-Rac1 or anti-RhoA antibody (Santa Cruz Biotechnology, Santa Cruz, Calif.). Whole cell lysates were also run to determine the total amount of Rac1 or RhoA protein.

[3] = tested on: HMVEC-L monolayers; experiment: Immunostaining of HMVEC-L bathed in HD IL-2 patient serum; type: cell-based, human; conditions: 1:10 serum for 30 minutes, then Ang-1 100 ng/mL
Procedure: Human pulmonary arterial microvascular endothelial cells (HMVECs) (Cambrex Bio Science, Walkersville, Md., United States) cells were cultured in EBM-2 (Cambrex Bio Science) supplemented with 5% fetal bovine serum (FBS) and growth factors according to the manufacturer's instructions. Serum starvation was performed by incubation in 0.25% FBS/EBM-2 for 24 hours.
HMVECs were grown to confluence on glass coverslips coated with 1% gelatin. The cells were fixed for 10 minutes in 4% paraformaldehyde in PBS, and incubated for 5 min in 0.5% Triton X-100 in PBS. After blocking, the monolayers were processed for staining with anti-VE-cadherin monoclonal antibody (BD Biosciences Pharmingen, San Diego, Calif., United States) and Alexa Fluor® 488 goat anti-mouse IgG, rhodamine phalloidin (Molecular Probes, Eugene, Oreg., […]) for F-actin staining and TOPRO-3-iodine (Molecular Probes) for nuclear staining. Fluorescence images were obtained using a Bio Rad MRC confocal fluorescence microscope. For experiments using cells treated with serum from patients, serum Ang-2 concentration was first measured by ELISA. Then, patient serum was diluted to 10% with EBM-2 and filtered with low-protein-binding PVL) F membrane (0.22 lm Millipore) prior to application on EC monolayers.

[4] = tested on: MLC phosphorylation (MLC-P); experiment: MLC-P immunoblot in HMVEC-L; type: cell-based, human; conditions: Ang-1, HMVEC-L
Procedure: (§1) HMVEC-L were washed with ice-cold PBS three times and lysed with ice-cold RIPA buffer (50 mM Tris-HCl pH7.4, 150 mM NaCl, 1% NP-40, 0.5% Sodium Deoxycholate, 0.1% SDS and 1 mM EDTA) supplemented with protease inhibitors (Roche Diagnostics, Indianapolis, Ind.), 1 mM NaF and 1 mM Na3VO4. Lysates were sonicated and centrifuged at 10,000 rpm for 10 minutes at 4° C., and supernatants were collected. Protein concentrations were determined by BCA protein assay with bovine serum albumin as standard (Pierce, Rockford, Ill.). Lysates were electrophoresed using NuPAGE system (Invitrogen Life Technologies, Franklin Lakes, N.J.) and transferred to PVDF membrane and immunoblotted with specific primary antibodies. Binding of primary antibodies was detected using horseradish peroxidase-conjugated secondary antibodies (Amersham Bioscience, Piscataway, N.J.) and SuperSignal WestDura (Pierce) as a chemiluminescence substrate. Primary antibodies were obtained from these suppliers: anti-phospho-Akt Ab (Ser 473), anti-Akt Ab and anti-phospho-myosin light chain 2 (Ser19) Ab were from Cell Signaling Technology; anti-GAPDH Ab was from Chemicon International (Temecula, Calif.).

[5] = tested on: mice (female FVB strain), lung; experiment: Lung histology after LPS; type: in vivo, mouse; conditions: Ang-1 10 μg ip x 2 doses
Procedure: Mice were treated as above and lungs were harvested, fixed in 10% formalin, embedded in paraffin, sectioned, and stained with hematoxilin and eosin. In Vivo Delivery of siRNA: Delivery of siRNA into mice was performed by TransIT® Hydrodynamic delivery solution (Mires, Madision, Wis.) per the manufacturer's instruction. Mice were injected with either 10 μg control siRNA or 10 μg p190RhoGAP siRNA in 2 nil delivery solution injected into the tail vein over 7 seconds. Four days later, p190RhoGAP knockdown was confirmed by lysing organs in RIPA buffer and performing Western analysis as outlined above. In vivo permeability and histological examination were performed as described above.

[6] = tested on: Tie2; experiment: Tie2 phosphorylation by Ang-1 in HMVEC-L; type: cell-based, human; conditions: Ang-1 100 ng/ml, 15 minutes
Procedure: We lysed HMVEC-L with Triton buffer (50 mM Tris-HCl pH 8.0, 150 mM NaCl, 1% Triton X 100, and 5 mM EDTA) supplemented with protease inhibitors (Roche Diagnostics), 1 mM NaF and 1 mM Na3VO4, adjusting protein concentration by BCA protein assay (Pierce) and incubated 200 μg of total protein with anti-Tie2-Ab (clone Ab33, Upstate, Lake Placid, N.Y.) or p190RhoGAP Ab (Transduction laboratory, Lexington, Ky.) for 3 hours, followed by incubation with protein A sepharose (Zymed, San Francisco, Calif.) for 2 hours at 4° C. After washing the beads, proteins were eluted by heating in SDS-sample buffer and detected by immunoblotting with anti-phospho-tyrosine (clone 4G10, Upstate), anti-Tie-2 Ab, or anti-p190RhoGAP Ab.

[7] = tested on: Akt; experiment: Akt phosphorylation (Western blot) in HMVEC-L; type: cell-based, human; conditions: Ang-1 100 ng/ml, 15 minutes
Procedure: as §1

B1: Ang-1: Human recombinant angiopoietin-1 purchased from R&D systems; Tie-2 agonist, endogenous Ang-2 antagonist (protein, listed as Homo sapiens)
chain: MTVFLSFAFLAAILTHIGCSNQRRSPENSGRRYNRIQHGQCAYTFILPEHDGNCRESTTDQYNTNALQRDAPHVEPDFSSQKLQHLEHVMENYTQWLQKLENYIVENMKSEMAQIQQNAVQNHTATMLEIGTSLLSQTAEQTRKLTDVETQVLNQTSRLEIQLLENSLSTYKLEKQLLQQTNEILKIHEKNSLLEHKILEMEGKHKEELDTLKEEKENLQGLVTRQTYIIQELEKQLNRATTNNSVLQKQQLELMDTVHNLVNLCTKEGVLLKGGKREEEKPFRDCADVYQAGFNKSGIYTIYINNMPEPKKVFCNMDVNGGGWTVIQHREDGSLDFQRGWKEYKMGFGNPSGEYWLGNEFIFAITSQRQYMLRIELMDWEGNRAYSQYDRFHIGNEKQNYRLYLKGHTGTAGKQSSLILHGADFSTKDADNDNCMCKCALMLTGGWWFDACGPSNLNGMFYTAGQNHGKLNGIKWHYFKGPSYSLRSTTMMIRPLDF
Question: How did the basal monolayer permeability ([1]; Ang-1 100 ng/ml, 4 hours) turn out when B1 was run?
Answer: Its basal monolayer permeability is “somewhat decreased”.

Question: What about the “effect on endotoxin-induced permeability” value ([1]; LPS with Ang-1) of the same molecule?
Answer: The value was “completely reversed”.

Question: And the Rac1 activity ([2]; HMVEC-L treated with Ang-1)?
Answer: Its Rac1 activity is “increased within 15 minutes”.

Question: What about the “effect on endotoxin-induced change of Rac1 activity” value ([2]; co-incubation with Ang-1) of the same molecule?
Answer: Its value is “reversed”.

Question: What about the “rescue of endothelial disruption by high Ang-2 HD IL-2 patient serum” value [3] of the same molecule?
Answer: The value was “significant attenuation in stress fiber formation; also recorded: rescue effect of Ang-1 was confirmed”.

Question: What about the “time of peak MLC phosphorylation (MLC-P) after stimulation” value [4] of the same molecule?
Answer: Its value is 0.5 to 1.0 h.

Question: What about the “effect on LPS-induced edema and leukocyte infiltration” value [5] of the same molecule?
Answer: The value was “reversed”.

Question: What about the Tie2 phosphorylation [6] of the same molecule?
Answer: The Tie2 phosphorylation was “induces Tie2 phosphorylation”.

Question: What about the Akt phosphorylation [7] of the same molecule?
Answer: Its Akt phosphorylation is “induces Akt phosphorylation”.
